Usually Km stands for the substrate concentration at which the rate is half of its maximum.

Holding throughout (assay type): biochemical
Data set [1] in a line: Kinetic assay of purified DAOCS with penicillin G (standard penicillin G assay, HPLC of cephalosporin G). To be noted: for penicillin G, 20 μg purified DAOCS, 1 mM α-ketoglutarate, 30° C. As for the experimental part: (§1) For penicillin G, 20 μl of cell extracts was added into a standard 200 μl assay reaction containing 50 mM Mops/pH 7.5, 4 mM ascorbate, 1 mM FeSO4, 4 mM α-ketoglutarate and 7 mM penicillin G, and incubated at 30° C. for 20 minutes. The reaction was stopped by addition of 200 μl of ethanol, followed by a centrifugation at 15,000×g for 5 minutes. The concentration of cephalosporin G in supernatant was analyzed by HPLC with 40 μl injection. The mobile phase was 25 mM potassium phosphate/pH 6.5 with 19% acetonitrile at a flow rate of 1 ml/min. The retention time for cephalosporin G was 8.5 minutes and 12.5 minutes for penicillin G with detection at 215 nm, and the product at 8.5 minutes in DAOCS reaction was confirmed by ESI-LC/MS (positive): [M+H]^+=333. […] The different combinations of the mutated amino acids mentioned above were also constructed by site-directed mutagenesis.
(§2) The cell extract (2 ml) of a candidate mutant was applied onto a HiTrap Q column (5 ml) pre-equilibrated with buffer B (50 mM Mops/pH 7.5, 1 mM DTT, 0.4 mM pefabloc SC, and 0.5 μg/ml leupeptin). Then, the column was washed with 20 ml of buffer B, followed by a further wash with 25 ml of buffer B containing 120 mM NaCl, and DAOCS was eluted off with 20 ml of buffer B containing 150 mM NaCl. The DAOCS containing fractions were pooled (10 ml), concentrated by UF 15 device (NMWL 5K; Millipore), and loaded onto a Hiload Superdex 75 (16/60) column pre-equilibrated with buffer B at a flow rate of 1 ml/min.
(§3) The standard penicillin G assay was followed for kinetic assay, but 20 μg of purified DAOCS was used and the concentration of α-ketoglutarate was reduced to 1 mM. Kinetic parameters were obtained from triplicate experiments by Hanes-Woolf Plot. For assays using penicillin N as a main substrate, a total volume of 240 μl reaction containing 50 mM Hepes/pH 7.5, 0.4 mM ascorbate, 0.1 mM FeSO4, 0.1 mM α-ketoglutarate, 0.1 mM penicillin N and 0.5 μg of purified DAOCS was incubated at 30° C. for 10 minutes, then the same volume of 10 mM EDTA/pH 7.5 was added, and the mixture was subjected to ultrafiltration with UF 0.5 device (NMWL 5000, Millipore). The filtrate was analyzed by HPLC using 25 mM potassium phosphate/pH 6.5 as a mobile phase. The retention time of DAOC and penicillin N was 12 minutes and 13.5 minutes, respectively The results of kinetic parameters are shown in Table 1, wherein the definition and calculation of the parameters are described in Lehninger et al. Principles of Biochemistry, 2nd Ed. Worth Publishers, New York (1993) which is incorporated herein for reference.

A short description of data set [2]: DAOCS activity assay with cell extracts. To be noted: 20 μl cell extract, 7 mM penicillin G, 30° C., 20 minutes. On the procedure:
BL21(DE3) transformants were grown overnight in 5 ml of LB medium with 50 μg/ml kanamycin at 30° C. This culture was used to inoculate 100 ml of the same medium and grown at 30° C. for 1 hour. Then 0.1 mM IPTG was added to induce DAOCS indirectly at 30° C. for 4 hours. Cells were harvested, washed with buffer A (50 mM Mops/pH 7.5, 1 mM PMSF, 1 mM DTT, and 0.5 μg/ml leupeptin), lysed by sonication (VCX 750; Sonics & Materials, USA), and centrifuged at 15,000×g for 15 minutes. The supernatant was used as a cell extract.
as §1

Data set [3] in a line: Kinetic assay of purified DAOCS with penicillin N as main substrate. On the procedure:
as §2, §3

B1: YS12: mutated penicillin expandase (DAOCS) with substitution N304K (protein, UniProt P18548 1-311, looked up, variant N304K)
Deacetoxycephalosporin C …: MDTTVPTFSLAELQQGLHQDEFRRCLRDKGLFYLTDCGLTDTELKSAKDLVIDFFEHGSEAEKRAVTSPVPTMRRGFTGLESESTAQITNTGSYSDYSMCYSMGTADNLFPSGDFERIWTQYFDRQYTASRAVAREVLRATGTEPDGGVEAFLDCEPLLRFRYFPQVPEHRSAEEQPLRMAPHYDLSMVTLIQQTPCANGFVSLQAEVGGAFTDLPYRPDAVLVFCGAIATLVTGGQVKAPRHHVAAPRRDQIAGSSRTSSVFFLRPNADFTFSVPLARECGFDVSLDGETATFQDWIGGNYVKIRRTSKA
B1: the kcat in data set [1] came to 0.0564 ± 0.0003 S^−1; in data set [3] (for penicillin N, 0.5 μg purified DAOCS, 30° C., 10 minutes), 0.366 ± 0.023 S^−1. Further, the Km was 220 ± 30 µM in data set [1] (triplicate, Hanes-Woolf Plot) and 4 ± 1 µM in data set [3] (for penicillin N, 0.5 μg purified DAOCS, 30° C., 10 minutes, triplicate, Hanes-Woolf Plot). Further, the “expandase activity on penicillin G compared to parent strain YS16” value in data set [2] is “higher expandase activities on penicillin G than the parent strain YS16”. Moreover, in data set [3] (penicillin N, compared to wild-type YS16), the “expansion activity on penicillin N, folds higher than wild-type YS16” value was 4 folds.

The values are drawn from patent publication US6905854B2, “Mutated penicillin expandase and process for preparing 7-ADCA using the same” (Synmax Biochemical Co., Ltd., priority 2002, dated 2005).
